Assay results from patent US20180177842A1 (CANIMGUIDE THERAPEUTICS, published 2018).
Ends that are not written are not given here.

T1: His-tagged P3028 (human, also: His tag, length and end not given here)
T1 construct: in solution at 0.5 ug/mL, detected with mouse anti-His antibody and rabbit anti-mouse peroxidase (rampo); also called PGE73; His-tag-P3028; not shown: His tag
T1 peptide: VFDEFKPLVEEPQNLIK


target: Artificial Cell Surface (ACS): biotinylated cell surface proteins of human PBMCs bound to a streptavidin column (human); assay: adsorption on ACS column, MALDI-TOF ms

| Binder | Percent Absorbed |
| --- | --- |
| KYLYEIAR [Trypsin-generated albumin fragment, SEQ ID NO 194] | 71% |

Target: T1, His-tagged P3028
Assay: PEPSCAN ELISA, peptide on chip;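 also: binding detected by peroxidase ELISA with ABTS, OD405 colour imaged by CCD camera before and after staining, raw OD405 reported as rampo units, air-bubble wells scored 0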
Method: After washing, the peroxidase substrate 2,2′-azine-di-3-ethylbenzthiazoline sulfonate (ABTS) and 2 μL of 3% H2O2 were added. The binding capacity of the mAb was measured as a color development at 405 nm (optical density, OD405). The color development was quantified with a charge-coupled device (CCD)—camera and an image processing system.
The OD405-values obtained by a CCD-camera was considered as raw data values (“rampo values,” “rampo units,” or “rampo scores”). […] First the CCD-camera made a picture of the card before peroxidase coloring and then again a picture after the peroxidase coloring. […] These values were copied into an excel file and labeled as a raw data file. […] Sometimes a well can contain an air-bubble resulting in a false-positive value. If manual inspection of the cards detect an air-bubble the value are set to 0 for well.

| Binder | RAMPO Score |
| --- | --- |
| KKLDTFFVKLSLFTER [SEQ ID NO 391] | 260 rampo units |
| KKLDTFVVKLSLFTER [SEQ ID NO 325] | 527 rampo units |
| KKLDTFFVKLSLRTER [SEQ ID NO 371] | 502 rampo units |
| KKLDTFFVKYSLFTER [SEQ ID NO 344] | 382 rampo units |
| KKLDTFFVKLSLFWER [SEQ ID NO 386] | 374 rampo units |
| KKLDTFFVKGSLFTER [SEQ ID NO 334] | 495 rampo units |
| KKLDTFFVKLSLFGER [SEQ ID NO 377] | 343 rampo units |
| KKLDTFFVKRSLFTER [SEQ ID NO 340] | 439 rampo units |
| KKLDTFFVKLSLPTER [SEQ ID NO 369] | 696 rampo units |
| KKLDTFFVKLSLFTDR [SEQ ID NO 387] | 404 rampo units |
| KKLDTFFVKLSLFSER [SEQ ID NO 384] | 369 rampo units |
| KKLDTFFVKLSLMTER [SEQ ID NO 367] | 1190 rampo units |
| KKLDTFFVKLSIFTER [SEQ ID NO 352] | 456 rampo units |
| KKLDTFFVKLSLFVER [SEQ ID NO 385] | 380 rampo units |
| KKLDTFFVKVSLFTER [SEQ ID NO 343] | 658 rampo units |
| KKLDTFFVKLSWFTER [SEQ ID NO 360] | 409 rampo units |
| KKLDTFFRKLSLFTER [SEQ ID NO 330] | 365 rampo units |
| KKLDTFFVKLSMFTER [SEQ ID NO 353] | 499 rampo units |
| KKLDTFFVKLNLFTER [SEQ ID NO 347] | 451 rampo units |
| KKLDTFFVKLSLFLER [SEQ ID NO 380] | 360 rampo units |
| KKLDTFFVKLSLFTEN [SEQ ID NO 390] | 311 rampo units |
| KKLDTFFGKLSLFTER [SEQ ID NO 327] | 379 rampo units |
| KKLDTFFVKLSSFTER [SEQ ID NO 357] | 478 rampo units |

| Binder | RAMPO Score |
| --- | --- |
| KKLDTFFVKLSLFPER [SEQ ID NO 383] | 551 rampo units |
| KKLDTFFVKISLFTER [SEQ ID NO 335] | 415 rampo units |
| KKLDTFFVKLSVFTER [SEQ ID NO 359] | 545 rampo units |
| KKLDTFFVKLSLITER [SEQ ID NO 365] | 468 rampo units |
| KKLDTFFVKLSQFTER [SEQ ID NO 355] | 651 rampo units |
| KKLDTFFVKLSLFTEY [SEQ ID NO 393] | 311 rampo units |
| KKLDTFFVKLSLFHER [SEQ ID NO 378] | 463 rampo units |
| KKLDTFFVKASLFTER [SEQ ID NO 332] | 426 rampo units |
| KKLDTFFVKLSLHTER [SEQ ID NO 364] | 1050 rampo units |
| KKLDTFFVKPSLFTER [SEQ ID NO 338] | 436 rampo units |
| KKLDTFFVKLSLVTER [SEQ ID NO 374] | 446 rampo units |
| KKLDTFFVKLSLWTER [SEQ ID NO 375] | 430 rampo units |
| KKLDTFFVKLHLFTER [SEQ ID NO 345] | 535 rampo units |
| KKLDTFFVKLSLTTER [SEQ ID NO 373] | 494 rampo units |
| KKLDTFFVKLSLFIER [SEQ ID NO 379] | 375 rampo units |
| KKLDTFFVKLSRFTER [SEQ ID NO 356] | 483 rampo units |
| KKLDTFFVKLMLFTER [SEQ ID NO 346] | 744 rampo units |
| KKLDTFFVKLSLFTEK [SEQ ID NO 389] | 291 rampo units |
| KKLDTFFVKLSLATER [SEQ ID NO 361] | 525 rampo units |
| KKLDTFFLKLSLFTER [SEQ ID NO 328] | 411 rampo units |
| KKLDTFFFKLSLFTER [SEQ ID NO 326] | 358 rampo units |
| KKLDTFFVKLSTFTER [SEQ ID NO 358] | 437 rampo units |
| KKLDTFFVKLSLQTER [SEQ ID NO 370] | 1140 rampo units |

| Binder | RAMPO Score |
| --- | --- |
| KKLDTFFVKLSLFNER [SEQ ID NO 382] | 599 rampo units |
| KKLDTFFVKLSLFFER [SEQ ID NO 376] | 348 rampo units |
| KKLDTFFVKSSLFTER [SEQ ID NO 341] | 351 rampo units |
| KKLDTFFPKLSLFTER [SEQ ID NO 329] | 456 rampo units |
| KKLDTFFVKLSLLTER [SEQ ID NO 366] | 448 rampo units |
| KKLDTFFVKLSLFMER [SEQ ID NO 381] | 501 rampo units |
| KKLDTFFVKLSHFTER [SEQ ID NO 351] | 460 rampo units |
| KKLDTFFVKLSLNTER [SEQ ID NO 368] | 862 rampo units |
| KKLDTFFVKLSLCTER [SEQ ID NO 362] | 400 rampo units |
| KKLDTFFVKLSLGTER [SEQ ID NO 363] | 531 rampo units |
| KKLDTFFVKMSLFTER [SEQ ID NO 336] | 460 rampo units |
| KKLDTFFVKLQLFTER [SEQ ID NO 348] | 768 rampo units |
| KKLDTFFVKTSLFTER [SEQ ID NO 342] | 399 rampo units |
| KKLDTFFVKLSLSTER [SEQ ID NO 372] | 635 rampo units |
| KKLDTFFVRLSLFTER [SEQ ID NO 331] | 374 rampo units |
| KKLDTFFVKLSNFTER [SEQ ID NO 354] | 462 rampo units |
| KKLDTFFVKLSLFTET [SEQ ID NO 392] | 292 rampo units |
| KKLDTFFVKLSLFTEF [SEQ ID NO 388] | 297 rampo units |
| KKLDTFFVKQSLFTER [SEQ ID NO 339] | 470 rampo units |
| KKLDTFFVKNSLFTER [SEQ ID NO 337] | 365 rampo units |
| KKLDTFFVKLSAFTER [SEQ ID NO 350] | 462 rampo units |
| KKLDTFFVKFSLFTER [SEQ ID NO 333] | 403 rampo units |
| KKLDTFFVKLTLFTER [SEQ ID NO 349] | 520 rampo units |
